Source: US20210206842A1 (NATIONAL RESEARCH COUNCIL OF CANADA, published 2021)

Legend:
[1] = molecular target: T1, VHH FC5; assay: SPR, VHH flowed over immobilized FC5, 25 C
T1 construct: put together from its FR and CDR entries; also called FC5-VHH; FC5 control
Source text: (§1) Surface Plasmon Resonance for VHH antibodies. […] Monomeric VHH fractions were collected and protein concentration determined by measuring A280 measurement. Using a Biacore T200 instrument (GE Healthcare), approximately 500-1000 RUs of FC5DIE3IR, FC5 and an irrelevant VHH (2A3-H4) were immobilized on a CM5 Series S sensor chip (GE Healthcare) at pH 4.0 using standard amine coupling according to the manufacturer's instructions (GE Healthcare). […] Surfaces were regenerated by washing with a 120 s pulse of 10 mM glycine pH 1.5. Data were analyzed with Biacore T200 Software v 3.0 and affinities determined using steady state binding or a 1:1 binding model.
(§2) Surface Plasmon Resonance (SPR).

[2] = molecular target: T2, FC5DIE3IR recombinant protein; assay: SPR (Biacore T200), VHH flowed over immobilized FC5DIE3IR, steady-state fit, 25 C
T2 construct: Made in CHO-3E7 cells; also called FC5DIE31R; FC5DIE3R
Source text: as §1, §2

T1 sequence (VHH, as listed by the source): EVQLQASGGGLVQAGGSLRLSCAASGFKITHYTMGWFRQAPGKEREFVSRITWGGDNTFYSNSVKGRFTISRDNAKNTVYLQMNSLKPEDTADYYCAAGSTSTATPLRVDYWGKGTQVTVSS

B1: VHH DI-48 (VHH)
VHH: QVQLVESGGGLVQAGGSLRLSCAASGRTFSTYVMGWFRQTPGKEREFVAGFSWSGDYAIYVNSVKGRFTISRDNAKNTVYLQMNSLRPEDTAVYYCAARQRGGYSGRSYYTGRNDYEYWGQGTQVTVSS
notes: From the FC5DIE3IR llama immune library; soluble tagged monomer in SPR; not shown: cmyc and His6 tags at the C-terminus
- binding result [1]: no binding (tested: 312 nM-5000 nM)
- Kd [2]: 8.4 µM
